B1: 02A01-IgG-IL12 (LC) (other)
VH: EVQLQQSGPELVKPGASLKISCKASGYTFTDFTMHWVKQSHGKSLEWIGLVNPNNGGNIYNQNFKGKATLTVDTSSSTAYMELRSLTSEDSSVYYCGRVPLYTSHGMDYWGQGTSVTVSS
VL: DIVLTQSPAFLAVSLGQRATISCRASESVDSYDINSMHWYQQKPGQPPKLLIYRASHLQSGIPARFSGSGSRTDFTLTINFVEADDVATYYCQQSNEDPLTFGAGTKLELK
notes: 02A01 IgG with human IL-12p70 linked to the C-terminus of each light chain; human IgG1 Fc with L234A, L235A, P329G, N297A; also called 02A01 IgG IL12p70 (LC)
B2: 03A01-IgG-IL12 (LC) (other)
VH: DVQFQESGPGLVKPSQSLSLTCTVTGYSITSDFAWNWIRQFPGNELEWMGYISYSGDTNYNPSLRSRISITRDTSKNQFFLQLDSVTTEDTATYYCTIRGYYTDSAFVFWGQGTLVTVSA
VL: DIQMTQSSSYLSVSLGGRVTITCKASDHINNWLAWYQQKPGNAPRLLISGATSLETGVPSRFTGSGSGLDYTLSITSLQTEDVATYYCQQYWNSPFTFGSGTKLEIK
notes: 03A01 IgG with human IL-12p70 linked to the C-terminus of each light chain; human IgG1 Fc with L234A, L235A, P329G, N297A; also called 03A01 IgG IL12p70 (LC)

Columns and labels:
[1] = target: T1, human CD8 on human T cells (human, UniProt P01732 22-235); experiment: flow cytometry, CD8+ T cells in human PBMCs, 1 h, PE anti-IL12
T1 construct: whole, on cells; the antibodies were raised against human CD8 alpha; also called CD8 on human CD8+ T cells; hCD8
T1 sequence (P01732 22-235): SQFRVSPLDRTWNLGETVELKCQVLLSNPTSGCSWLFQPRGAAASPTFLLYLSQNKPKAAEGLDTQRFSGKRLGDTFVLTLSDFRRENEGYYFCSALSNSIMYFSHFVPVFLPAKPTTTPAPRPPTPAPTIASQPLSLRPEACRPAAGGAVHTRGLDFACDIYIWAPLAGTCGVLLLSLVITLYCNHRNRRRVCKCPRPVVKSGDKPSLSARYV
Method: Fusion proteins 02A01-IgG-IL12 (LC) and 03A01-IgG-IL12 (LC) were evaluated for their ability to specifically target IL12 to CD8⁺ T cells. […] The cells were incubated with media lacking a fusion protein as a negative control. Following 1 hour of incubation with the IL12 fusion constructs, the cells were washed once with complete RPMI medium and prepared for flow cytometry analysis. Cells were washed once with phosphate-buffered saline (PBS) containing 1% bovine serum albumin (PBS/BSA) and then stained with a 1:100 dilution of PE-conjugated anti-IL12 antibody (Clone No. C11.5; BioLegend Cat. No. 501807) in PBS/BSA. Following a 20 minute incubation at room temperature, the cells were washed once with PBS/BSA and then resuspended in PBS/BSA for analysis on a FACSCelesta using Diva software (BD Biosciences). Binding activity was quantified and represented as the mean fluorescent intensity values of IL-12 on either CD8⁺ T cells or NK cells. […] At a saturating dose, there was a 4- to 5-fold more IL-12 bound to CD8⁺ T cells than was bound to NK cells.

[2] = target: T1, human CD8 on human T cells; experiment: cell-based or functional assay

Row | Binder | EC50 (read off the curve) [1] [nM] | EC50 of pSTAT4 signaling in human CD8+ T cells [2] [nM]
1 | B1 | ~0.01 | 0.00272
2 | B2 | ~0.2 | 0.0147
